Results taken from patent publication US20090123452A1 (TORREY PINES INSTITUTE FOR MOLECULAR STUDIES AND CATALYST …, published 2009).
Residue numbers refer to the chain shown, from its start. Names and notes keep the numbering of the source.

T1: mutant antithrombin III AT3/SLGR-KI (human, UniProt P01008 33-464)
T1 construct: RCL residues IAGRSL are replaced by SLGRKI; also called AT3 (AT3/SLGR-KI)
T1 chain: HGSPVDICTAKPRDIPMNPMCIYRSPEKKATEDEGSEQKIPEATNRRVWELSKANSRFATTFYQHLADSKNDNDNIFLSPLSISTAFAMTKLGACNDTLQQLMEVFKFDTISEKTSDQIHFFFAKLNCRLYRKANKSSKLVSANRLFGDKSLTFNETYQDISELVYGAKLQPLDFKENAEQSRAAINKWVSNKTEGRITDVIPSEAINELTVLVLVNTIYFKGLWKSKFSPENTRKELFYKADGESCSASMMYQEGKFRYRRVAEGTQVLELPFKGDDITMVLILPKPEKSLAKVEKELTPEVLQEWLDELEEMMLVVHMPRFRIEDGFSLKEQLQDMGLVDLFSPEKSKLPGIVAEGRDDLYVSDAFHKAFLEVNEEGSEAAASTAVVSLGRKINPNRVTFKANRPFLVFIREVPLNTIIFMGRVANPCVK

B1: Mutant MT-SP1 clone CPC-0023085 (phage) (enzyme)
chain: VVGGTDADEGEWPWQVSLHALGQGHFCGASLISPNWLVSAAHCYIDDRGFRYSDPTQWTAFLGLHDQSQRSAPGVQERRLKRIISHPFFNDFTFDYDIALLELEKPAEYSSMVRPISLPDASHVFPAGKAIWVTGWGHTQYGGTGALILQKGEIRVINQTTCENLLPQQITPRMMCVGFLSGGVDSCQGDSGGPLSSVEADGRIFQAGVVSWGDGCAQRNKPGVYTRLPLFRDWIKENTGVSGSSGGGSEGGGSEGGGSEGGGSGGGSGSGDFDYEKMANANKGAMTENADENALQSDAKGKLDSVATDYGAAIDGFIGDVSGLANGNGATGDFAGSNSQMAQVGDGDNSPLMNNFRQYLPSLPQSVECRPFVFSAGKPYEFSIDCDKINLFRGVFAFLLYVATFMYVFSTFANILRNKES
notes: I41F/C122S
B2: Mutant MT-SP1 clone CPC-0025387 (phage) (enzyme)
chain: B1 chain
notes: I41F/C122S
B3: Mutant MT-SP1 clone CPC-0025366 (phage) (enzyme)
chain: B1 chain with D8E, T93P, T139I
notes: D23E/I41F/T98P/C122S/T144I
B4: Mutant MT-SP1 clone CPC-0019595 (phage) (enzyme)
chain: B1 chain with F26I, I131T, N158D, T160A, F179L, D214V
notes: C122S/I136T/N164D/T166A/F184(A)L/D217V (chymotrypsin numbering); the STII leader is not counted
B5: Mutant MT-SP1 clone CPC-0028333 (phage) (enzyme)
chain: B1 chain with F26I, T59K, F88L, F92Y, D214V
notes: T65K/F93L/F97Y/C122S/D217V
B6: Mutant MT-SP1 clone CPC-0025720 (phage) (enzyme)
chain: B1 chain with F26I, H138R, Q169R
notes: C122S/H143R/Q175R
B7: Mutant MT-SP1 clone CPC-0028017 (phage) (enzyme)
chain: B1 chain with F26I, D214V
notes: C122S/D217V
B8: Mutant MT-SP1 clone CPC-0026100 (phage) (enzyme)
chain: B1 chain with I148V, V241G
notes: I41F/C122S/I154V/V244G
B9: Mutant MT-SP1 clone CPC-0027797 (phage) (enzyme)
chain: B1 chain with F26I, H65R, P126S, D214V
notes: H71R/C122S/P131S/D217V
B10: Mutant MT-SP1 clone CPC-0027706 (phage) (enzyme)
chain: B1 chain with F26I, F92Y, I131V, Q188H, S197I
notes: F97Y/C122S/I136V/Q192H/S201I
B11: Mutant MT-SP1 clone CPC-0025582 (phage) (enzyme)
chain: B1 chain with L165F, V241G
notes: I41F/C122S/L171F/V244G
B12: Mutant MT-SP1 clone CPC-0025876 (phage) (enzyme)
chain: B1 chain with L165F
notes: I41F/C122S/L171F
B13: Mutant MT-SP1 clone CPC-0027399 (phage) (enzyme)
chain: B1 chain with F26I, F94L
notes: F99L/C122S
B14: Mutant MT-SP1 clone CPC-0024153 (phage) (enzyme)
chain: B1 chain with A121T, V241G
notes: I41F/C122S/A126T/V244G
B15: Mutant MT-SP1 clone CPC-0026232 (phage) (enzyme)
chain: B1 chain with L37M, V124D, Q218L
B16: Mutant MT-SP1 clone CPC-0028341 (phage) (enzyme)
chain: B1 chain with F26T, P167S, Q206L
notes: I41T/C122S/P173S/Q209L
B17: Mutant MT-SP1 clone CPC-0027484 (phage) (enzyme)
chain: B1 chain with F26I, N90K
notes: N95K/C122S

Target: T1, mutant antithrombin III AT3/SLGR-KI
Test: phage display selection: complex with His-tagged AT3-SLGRKI bait captured by anti-His antibody on plate

Binder	binding result
B1	binds
B2	binds
B3	binds
B4	binds
B5	binds
B6	binds
B7	binds
B8	binds
B9	binds
B10	binds
B11	binds
B12	binds
B13	binds
B14	binds
B15	binds

Target: T1, mutant antithrombin III AT3/SLGR-KI
Test: as above
Remark: another data set of the same source

Binder	binding result
B16	binds
B17	binds
